Experimental data taken from WO2020146541A2 (dated 2020).
Several values for one entry are separate records, joined by “and”; a condition that tells them apart may be missing. Equal entries are not always repeated.

T1: human MSR1 (human, UniProt P21757 1-451)
T1 sequence (looked up): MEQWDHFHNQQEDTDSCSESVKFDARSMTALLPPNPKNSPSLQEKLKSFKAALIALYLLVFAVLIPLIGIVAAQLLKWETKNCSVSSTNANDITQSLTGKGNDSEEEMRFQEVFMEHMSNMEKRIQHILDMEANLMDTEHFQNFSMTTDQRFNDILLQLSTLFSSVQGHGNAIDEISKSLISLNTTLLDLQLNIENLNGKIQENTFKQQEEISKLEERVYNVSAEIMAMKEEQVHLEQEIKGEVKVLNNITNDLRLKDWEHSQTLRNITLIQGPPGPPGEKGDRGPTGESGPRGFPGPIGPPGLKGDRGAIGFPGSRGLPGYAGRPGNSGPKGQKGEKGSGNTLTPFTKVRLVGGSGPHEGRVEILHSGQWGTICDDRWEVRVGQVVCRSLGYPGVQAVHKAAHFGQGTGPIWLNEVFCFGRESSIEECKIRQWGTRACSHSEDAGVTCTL


Biological target: T1, human MSR1
Experiment: cell-based or functional assay

| EC50, GR luciferase reporter activity in HEK293/GRLuc/MSR1 cells | signal to noise (S/N), GR luciferase reporter in HEK293/GRLuc/MSR1 cells | Molecule |
| --- | --- | --- |
| > 35 nM | 1.9 to 154 | isotype control ADCs (antibody) |
| > 50 nM | 3.8 to 148 | isotype control ncADCs (antibody) |
| 0.636 nM and 3.96 nM | – | anti-MSR1 (H1H21234N-N297Q) ADCs (antibody, V domains shown, linker-payload on glutamines Q295 and Q297 (N297Q, EU numbering) of the heavy chain constant region; four DAR) VH: QVQLQESGPGLVKPSETLSLTCTVTGGSISRNYWSWIRQPPGKGLEWIGYIYYSGSIDYNPSLKSRVTISVDTSKNQFSLKLSSMTAADTAVYYCARDRWNWKYGMDVWGQGTTVIVSS VL: EIVLTQSPGTLSLSPGERATLSCRASQTVRNNYLAWYHQKPGQAPRLLIYGASSRATGIPDRFSGSGSGTDFTLTISRLEPEDFTVYYCHQYGNSPWTFGQGTKMEIKR |
